B1: human μ-calpain: μ-Calpain extracted from human erythrocytes (Calpain 1, human erythrocytes; Calbiochem, Inc.) (protein, UniProt P07384 2-714; P04632 1-268, looked up)
Calpain-1 catalytic subunit: SEEIITPVYCTGVSAQVQKQRARELGLGRHENAIKYLGQDYEQLRVRCLQSGTLFRDEAFPPVPQSLGYKDLGPNSSKTYGIKWKRPTELLSNPQFIVDGATRTDICQGALGDCWLLAAIASLTLNDTLLHRVVPHGQSFQNGYAGIFHFQLWQFGEWVDVVVDDLLPIKDGKLVFVHSAEGNEFWSALLEKAYAKVNGSYEALSGGSTSEGFEDFTGGVTEWYELRKAPSDLYQIILKALERGSLLGCSIDISSVLDMEAITFKKLVKGHAYSVTGAKQVNYRGQVVSLIRMRNPWGEVEWTGAWSDSSSEWNNVDPYERDQLRVKMEDGEFWMSFRDFMREFTRLEICNLTPDALKSRTIRKWNTTLYEGTWRRGSTAGGCRNYPATFWVNPQFKIRLDETDDPDDYGDRESGCSFVLALMQKHRRRERRFGRDMETIGFAVYEVPPELVGQPAVHLKRDFFLANASRARSEQFINLREVSTRFRLPPGEYVVVPSTFEPNKEGDFVLRFFSEKSAGTVELDDQIQANLPDEQVLSEEEIDENFKALFRQLAGEDMEISVKELRTILNRIISKHKDLRTKGFSLESCRSMVNLMDRDGNGKLGLVEFNILWNRIRNYLSIFRKFDLDKSGSMSAYEMRMAIESAGFKLNKKLYELIITRYSEPDLAVDFDNFVCCLVRLETMFRFFKTLDTDLDGVVTFDLFKWLQLTMFA
Calpain small subunit 1: MFLVNSFLKGGGGGGGGGGGLGGGLGNVLGGLISGAGGGGGGGGGGGGGGGGGGGGTAMRILGGVISAISEAAAQYNPEPPPPRTHYSNIEANESEEVRQFRRLFAQLAGDDMEVSATELMNILNKVVTRHPDLKTDGFGIDTCRSMVAVMDSDTTGKLGFEEFKYLWNNIKRWQAIYKQFDTDRSGTICSSELPGAFEAAGFHLNEHLYNMIIRRYSDESGNMDFDNFISCLVRLDAMFRAFKSLDKDGTGQIQVNIQEWLQLTMYS
B2: rat m-calpain: rat m-calpain (Calpain 2, rat recombinant, E. coli, Calbiochem, Inc.), positive control (protein)
chain: MAGIAMKLAKDREAAEGLGSHERAIKYLNQDYETLRNECLEAGALFQDPSFPALPSSLGFKELGPYSSKTRGIEWKRPTEICADPQFIIGGATRTDICQGALGDCWLLAAIASLTLNEEILARVVPLDQSFQENYAGIFHFQFWQYGEWVEVVVDDRLPTKDGELLFVHSAEGSEFWSALLEKAYAKINGCYEALSGGATTEGFEDFTGGIAEWYELRKPPPNLFKIIQKALEKGSLLGCSIDITSAADSEAVTYQKLVKGHAYSVTGAEEVESSGSLQKLIRIRNPWGQVEWTGKWNDNCPSWNTVDPEVRANLTERQEDGEFWMSFSDFLRHYSRLEICNLTPDTLTCDSYKKWKLTKMDGNWRRGSTAGGCRNYPNTFWMNPQYLIKLEEEDEDDEDGERGCTFLVGLIQKHRRRQRKMGEDMHTIGFGIYEVPEELTGQTNIHLSKNFFLTTRARERSDTFINLREVLNRFKLPPGEYVLVPSTFEPHKNGDFCIRVFSEKKADYQTVDDEIEANIEEIEANEEDIGDGFRRLFAQLAGEDAEISAFELQTILRRVLAKREDIKSDGFSIETCKIMVDMLDEDGSGKLGLKEFYILWTKIQKYQKIYREIDVDRSGTMNSYEMRKALEEAGFKLPCQLHQVIVARFADDELIIDFDNFVRCLVRLEILFKIFKQLDPENTGTIQLDLISWLSFSVL

Legend:
Assay type in all cases: biochemical
Conditions in all cases: 1 hour at 37° C.
human HNF-4α = assay: in vitro protein degradation test of HNF-4α by calpain (Western blotting)
Experimental: Using the HNF-4α expression plasmid, in vitro synthesis of HNF-4α protein was conducted using the TNT T7 Quick Coupled Transcription/Translation System (Promega, Inc.). That is, the HNF-4α expression plasmid was mixed with TNT T7 Quick Master Mix, and then incubated for 1.5 hours at 30° C. in the presence of methionine to synthesize HNF-4α.
The in vitro protein degradation test was carried out by adding m-calpain extracted from rabbit muscle (Protease, Calcium-Activated Neutral (calpain), Sigma Chemical Co.) at a final concentration of 50 μg/mL to the synthesized HNF-4α, and then incubating for 1 hour at 37° C. in the presence of 200 mM Tris-HCl (pH 7.8)/1 mM dithiothreitol (DTT)/6 mM CaCl2. To conduct a degradation test in the absence of calcium, a test sample was prepared by adding 10 mM ethylenediaminetetraacetic acid (EDTA) instead of 6 mM CaCl2, and the sample was then incubated in a similar manner. The samples after incubation were added to an equal volume of 2× sodium dodecyl sulfate (SDS) sample buffer (4% SDS/125 mM Tris-HCl, pH 6.8/20% glycerol/0.01% bromphenol blue (BPB)/10% β-mercaptoethanol), heated for 5 minutes, and subjected to 10% SDS-PAGE for separation. Thereafter, Western blotting was carried out to detect HNF-4α using anti-HNF-4α antibody/HNF-4α (C-19) antibody (Santa Cruz Biotechnology, Inc.) and anti-Xpress antibody (Invitrogen, Inc.). An ECL Western blotting detection kit (Amersham pharmacia biotech) was used for the detection.
The final concentration of human m-calpain in the reaction system was 2.33 mg/mL as the protein concentration of the lysate of sf-9 cells that expressed human m-calpain. The final concentration of rat m-calpain in the reaction system was 59 units/mL. A degradation test was also conducted in the same manner without addition of calpain. Further, to test for degradation in the absence of calcium, a sample was prepared by adding 10 mM of EDTA instead of 6 mM CaCl2, and a degradation test was conducted with the sample in a similar manner. The samples after incubation were added to an equal volume of 2×SDS sample buffer, heated for 5 minutes, and subjected to 5-20% SDS-PAGE for separation. Thereafter, Western blotting was carried out to detect HNF-4α using anti-HNF-4α antibody/HNF-4α (C-19) antibody. An ECL Western blotting detection kit was used for the detection.
An in vitro protein degradation test was carried out by adding μ-calpain to HNF-4α at a final concentration of 50 units/mL, and incubating for 1 hour at 37° C. in the presence of 200 mM Tris-HCl (pH 7.8)/1 mM DTT/6 mM CaCl2. […]

human HNF-1α = assay: in vitro protein degradation test of HNF-1α by calpain (Western blotting)
Experimental: Using the HNF-1α expression plasmid, in vitro synthesis of HNF-1α protein was carried out using the TNT T7 Quick Coupled Transcription/Translation System. That is, the HNF-1α expression plasmid was mixed with TNT T7 Quick Master Mix, and then incubated for 1.5 hours at 30° C. in the presence of methionine to synthesize HNF-1α. Thereafter, immunoprecipitation was conducted by adding anti-Xpress antibody to the synthesized HNF-1α, mixing by inversion for 1 hour at 4° C., and then adding Protein G Sepharose 4 Fast Flow and mixing by inversion for an additional 1 hour at 4° C. Subsequently, Protein G Sepharose was collected by centrifugation and washed 3 times with washing buffer (50 mM Tris-HCl, pH 7.5/150 mM NaCl/0.2% Nonidet P-40), followed by rinsing with 200 mM Tris-HCl (pH 7.8) to obtain the HNF-1α sample as 20% slurry (hereunder, referred to as “HNF-1α slurry”).
Protein degradation tests were carried out in vitro by adding μ-calpain or m-calpain to the HNF-1α slurry, and incubating for 1 hour at 37° C. in the presence of 200 mM Tris-HCl (pH 7.8)/1 mM DTT/6 mM CaCl2. The final concentrations of the respective calpain in the reaction system were as follows: 50 units/mL of human μ-calpain; 50 μg/mL of rabbit m-calpain as a protein concentration; and 59 units/mL of rat m-calpain. For a control experiment, an HNF-1α slurry was incubated without the addition of calpain in a similar manner in the presence of calcium. Further, to test for protein degradation in the absence of calcium, a sample was prepared by adding 10 mM of EDTA instead of 6 mM of CaCl2 and was incubated in the same manner. The samples after incubation were added to an equal volume of 2×SDS sample buffer, heated for 5 minutes, and then subjected to 5-20% SDS-PAGE for separation. Thereafter, Western blotting was carried out to detect HNF-1α using anti-Omni/M21 antibody (Santa Cruz Biotechnology, Inc.), which recognizes a His-Xpress region, and anti-HNF-1α antibody/HNF-1α (C-19) antibody (Santa Cruz Biotechnology, Inc.). An ECL Western blotting detection kit was used for conducting the detection.
In-vitro protein degradation tests were carried out in the same manner as in Example 7, but the lysate of sf-9 cells that coexpressed m-calpain with calpain small subunit 1 was used as m-calpain. The final concentration of the lysate of the sf-9 cells that expressed these proteins in the reaction system was 1.75 mg/mL as a protein concentration. The final concentration of rat m-calpain in the reaction system was 59 units/mL. Detection of HNF-1α was performed in the same manner as Example 7, but only anti-HNF-1α antibody/HNF-1α (C-19) antibody was used.

human IPF-1 = assay: in vitro protein degradation test of IPF-1 by calpain (Western blotting)
Experimental: Using the IPF-1 expression plasmid, synthesis of IPF-1 protein was carried out in vitro using the TNT T7 Quick Coupled Transcription/Translation System. That is, the IPF-1 expression plasmid was mixed with TNT T7 Quick Master Mix, and then incubated for 1.5 hours at 30° C. in the presence of methionine to synthesize IPF-1.
Protein degradation tests were carried out in vitro by adding μ-calpain or m-calpain to IPF-1, and incubating for 1 hour at 37° C. in the presence of 200 mM Tris-HCl (pH 7.8)/1 mM DTT/6 mM CaCl2. The final concentrations of each calpain in the reaction systems were as follows: 50 units/mL of human μ-calpain; 50 μg/mL of rabbit m-calpain as a protein concentration, and 59 units/mL of rat m-calpain. For a control experiment, IPF-1 was incubated without addition of calpain in the same manner in the presence of calcium. Further, to test for protein degradation in the absence of calcium, a sample was prepared by adding 10 mM of EDTA instead of 6 mM of CaCl2, and incubated in the same manner. The samples after incubation were added to an equal volume of 2×SDS sample buffer, heated for 5 minutes, and subjected to 5-20% SDS-PAGE for separation. Thereafter, Western blotting was carried out to detect IPF-1 using anti-Xpress antibody and anti-IPF1 (PDX-1) antibody/N-18 (Santa Cruz Biotechnology, Inc.). The ECL Western blotting detection kit was used for conducting the detection.
In-vitro protein degradation tests were carried out in the same manner as Example 10, but the lysate of sf-9 cells that coexpressed m-calpain with calpain small subunit 1 was used as m-calpain. The final concentration of the lysate of sf-9 cells that expressed these proteins in the reaction system was 2.33 mg/mL as a protein concentration. The final concentration of rat m-calpain in the reaction system was 59 units/mL. Detection of IPF-1 was performed in the same manner as Example 10, but only anti-IPF-1 antibody/N-18 was used.

[1] = in the absence of calcium (10 mM EDTA instead of CaCl2)
[2] = in the presence of calcium (6 mM CaCl2), Western blotting

Molecule | degradation of HNF-4α (human HNF-4α; [1]) | degradation of HNF-4α (human HNF-4α; [2]) | degradation of HNF-1α (human HNF-1α; [1]) | degradation of HNF-1α (human HNF-1α; [2]) | degradation of IPF-1 (human IPF-1; [1]) | degradation of IPF-1 (human IPF-1; [2])
B1 | not observed | observed | not degraded | observed | not degraded | observed
B2 | – | – | not degraded | observed | not degraded | observed

— patent US20070004636A1, “Method of degrading transcriptional factors of saccharometabolism-associated gene, method for inhibiting the degradation, and agent for inhibiting degradation and degradation inhibitor” (priority 2002, published 2007)
